The chains are these.
B5: endogenous KIF11 (kinesin family member 11) (other)
chain: MASQPNSSAKKKEEKGKNIQVVVRCRPFNLAERKASAHSIVECDPVRKEVSVRTGGLADKSSRKTYTFDMVFGASTKQIDVYRSVVCPILDEVIMGYNCTIFAYGQTGTGKTFTMEGERSPNEEYTWEEDPLAGIIPRTLHQIFEKLTDNGTEFSVKVSLLEIYNEELFDLLNPSSDVSERLQMFDDPRNKRGVIIKGLEEITVHNKDEVYQILEKGAAKRTTAATLMNAYSSRSHSVFSVTIHMKETTIDGEELVKIGKLNLVDLAGSENIGRSGAVDKRAREAGNINQSLLTLGRVITALVERTPHVPYRESKLTRILQDSLGGRTRTSIIATISPASLNLEETLSTLEYAHRAKNILNKPEVNQKLTKKALIKEYTEEIERLKRDLAAAREKNGVYISEENFRVMSGKLTVQEEQIVELIEKIGAVEEELNRVTELFMDNKNELDQCKSDLQNKTQELETTQKHLQETKLQLVKEEYITSALESTEEKLHDAASKLLNTVEETTKDVSGLHSKLDRKKAVDQHNAEAQDIFGKNLNSLFNNMEELIKDGSSKQKAMLEVHKTLFGNLLSSSVSALDTITTVALGSLTSIPENVSTHVSQIFNMILKEQSLAAESKTVLQELINVLKTDLLSSLEMILSPTVVSILKINSQLKHIFKTSLTVADKIEDQKKELDGFLSILCNNLHELQENTICSLVESQKQCGNLTEDLKTIKQTHSQELCKLMNLWTERFCALEEKCENIQKPLSSVQENIQQKSKDIVNKMTFHSQKFCADSDGFSQELRNFNQEGTKLVEESVKHSDKLNGNLEKISQETEQRCESLNTRTVYFSEQWVSSLNEREQELHNLLEVVSQCCEASSSDITEKSDGRKAAHEKQHNIFLDQMTIDEDKLIAQNLELNETIKIGLTKLNCFLEQDLKLDIPTGTTPQRKSYLYPSTLVRTEPREHLLDQLKRKQPELLMMLNCSENNKEETIPDVDVEEAVLGQYTEEPLSQEPSVDAGVDCSSIGGVPFFQHKKSHGKDKENRGINTLERSKVEETTEHLVTKSRLPLRAQINL
notes: Endogenous protein in cell extracts; GenBank NM-004523 printed for the gene; also called EG5

Assay [1] deals with B5. The assay is described as follows: anti-Flag and anti-HA immunoprecipitation from transfected LC319 cells, silver stain, MALDI-TOF.
Procedure: Cells were extracted in IP-buffer (0.5% NP-40, 50 mM Tris-HCl, 150 mM NaCl, and protease inhibitor) for 30 min on ice. Extracts were centrifuged at 14,000 rpm for 15 min, and supernatants were subjected to immunoprecipitation using anti-Flag M2 agarose (Sigma-Aldrich) and anti-HA beads (Sigma-Aldrich) for 1-2 hours. The beads were washed six times with IP-buffer, and protein was eluted by boiling the beads in Laemmli sample buffer after removing the final wash fraction. The eluted protein was resolved by SDS-PAGE and stained with silver staining. A 125 kDa-band was extracted by gel extraction, and used for mass spectrometric sequencing using MALDI-TOF mass spectrometry.
The target in assay [2] is T1, EYFP-fused KIF11 (EYFP-KIF11) (human, UniProt P52732 1-1056).
T1 construct: Expressed in COS-7 cells; not shown: EYFP from pEYFP-N1 vector
T1 sequence: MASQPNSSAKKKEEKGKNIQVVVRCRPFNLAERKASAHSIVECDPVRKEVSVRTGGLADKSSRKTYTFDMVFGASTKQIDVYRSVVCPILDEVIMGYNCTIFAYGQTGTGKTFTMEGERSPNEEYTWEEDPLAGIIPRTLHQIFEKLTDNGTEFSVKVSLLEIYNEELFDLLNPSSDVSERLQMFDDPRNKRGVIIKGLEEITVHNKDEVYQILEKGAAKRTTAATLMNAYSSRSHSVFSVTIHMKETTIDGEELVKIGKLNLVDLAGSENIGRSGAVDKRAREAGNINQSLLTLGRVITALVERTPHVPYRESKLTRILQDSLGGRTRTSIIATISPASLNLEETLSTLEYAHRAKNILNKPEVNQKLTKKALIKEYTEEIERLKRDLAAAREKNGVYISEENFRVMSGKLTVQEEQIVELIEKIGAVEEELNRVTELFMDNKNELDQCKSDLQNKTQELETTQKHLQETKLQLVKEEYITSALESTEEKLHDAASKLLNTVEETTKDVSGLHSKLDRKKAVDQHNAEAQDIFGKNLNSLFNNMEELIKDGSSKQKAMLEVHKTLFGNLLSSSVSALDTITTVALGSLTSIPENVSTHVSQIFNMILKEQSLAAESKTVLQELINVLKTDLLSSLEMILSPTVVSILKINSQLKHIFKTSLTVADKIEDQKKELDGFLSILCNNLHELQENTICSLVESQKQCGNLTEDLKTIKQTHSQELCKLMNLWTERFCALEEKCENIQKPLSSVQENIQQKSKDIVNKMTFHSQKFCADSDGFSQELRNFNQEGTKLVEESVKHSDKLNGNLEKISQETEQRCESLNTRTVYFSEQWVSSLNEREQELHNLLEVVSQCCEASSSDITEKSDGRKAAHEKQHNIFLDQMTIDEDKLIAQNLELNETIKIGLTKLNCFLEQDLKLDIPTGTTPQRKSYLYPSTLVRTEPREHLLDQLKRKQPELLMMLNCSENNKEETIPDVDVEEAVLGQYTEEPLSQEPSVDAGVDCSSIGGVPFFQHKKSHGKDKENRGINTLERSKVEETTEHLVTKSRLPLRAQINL
Put plainly: live-cell fluorescence microscopy of co-transfected COS-7 cells (co-localised particles).

For assay [3], the target named is B5. Put plainly: reciprocal immunoprecipitation with anti-KOC1 and anti-KIF11 polyclonal antibodies, western blot. (A western blot detects proteins with antibodies after separation by electrophoresis.)
For assay [4], the target named is B5. The assay is described as follows: immunoprecipitation from transfected LC319 cells.
Assay [5] addresses dynactin 1 (DCTN1; p150, glued homolog, Drosophila), endogenous (human, UniProt Q14203 1-1278, limits assumed). The assay is described as follows: immunoprecipitation with anti-KIF11 polyclonal and anti-DCTN1 monoclonal antibody; 150-kDa partner first identified by MALDI-TOF from LC319 lysate.
In assay [6] the target is B5. Put plainly: immunoprecipitation from transfected A549 cells.

dynactin 1 (DCTN1; p150, glued homolog, Drosophila), endogenous, sequence (Q14203 whole entry): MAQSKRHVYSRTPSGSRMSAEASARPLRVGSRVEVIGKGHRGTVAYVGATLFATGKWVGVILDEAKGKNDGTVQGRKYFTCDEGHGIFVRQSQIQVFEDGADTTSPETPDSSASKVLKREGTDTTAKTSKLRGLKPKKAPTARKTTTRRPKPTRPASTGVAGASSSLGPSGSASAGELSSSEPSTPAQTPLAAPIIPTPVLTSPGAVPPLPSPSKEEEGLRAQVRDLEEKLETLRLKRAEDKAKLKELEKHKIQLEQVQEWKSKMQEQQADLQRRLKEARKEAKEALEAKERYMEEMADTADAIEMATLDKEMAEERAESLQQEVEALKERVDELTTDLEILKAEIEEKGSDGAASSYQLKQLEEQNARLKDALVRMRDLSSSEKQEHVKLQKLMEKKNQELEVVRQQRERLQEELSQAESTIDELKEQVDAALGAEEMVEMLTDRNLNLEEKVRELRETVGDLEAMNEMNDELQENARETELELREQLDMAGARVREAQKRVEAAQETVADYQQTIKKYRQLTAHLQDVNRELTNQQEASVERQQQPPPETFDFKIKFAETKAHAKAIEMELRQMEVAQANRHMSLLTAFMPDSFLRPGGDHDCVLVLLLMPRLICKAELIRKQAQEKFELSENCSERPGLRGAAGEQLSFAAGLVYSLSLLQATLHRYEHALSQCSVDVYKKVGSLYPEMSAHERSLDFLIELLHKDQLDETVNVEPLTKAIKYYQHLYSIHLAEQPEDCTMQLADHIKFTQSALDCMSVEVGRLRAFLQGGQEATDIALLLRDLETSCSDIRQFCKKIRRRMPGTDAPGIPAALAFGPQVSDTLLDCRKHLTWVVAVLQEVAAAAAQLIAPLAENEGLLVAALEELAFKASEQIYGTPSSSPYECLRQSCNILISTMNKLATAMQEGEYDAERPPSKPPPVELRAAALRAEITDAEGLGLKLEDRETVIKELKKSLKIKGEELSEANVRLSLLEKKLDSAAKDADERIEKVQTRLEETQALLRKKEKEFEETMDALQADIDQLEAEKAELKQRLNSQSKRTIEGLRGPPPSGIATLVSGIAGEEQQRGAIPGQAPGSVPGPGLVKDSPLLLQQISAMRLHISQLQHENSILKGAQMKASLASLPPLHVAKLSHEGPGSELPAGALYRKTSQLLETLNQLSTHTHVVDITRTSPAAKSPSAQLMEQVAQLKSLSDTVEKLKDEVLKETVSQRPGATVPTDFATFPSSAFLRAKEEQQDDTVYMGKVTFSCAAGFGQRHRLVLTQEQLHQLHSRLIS

B1: FLAG- and HA-tagged KOC1 (pCAGGS-n3FH-KOC1; NH2-terminal FLAG, COOH-terminal HA) (other)
chain: MNKLYIGNLSENAAPSDLESIFKDAKIPVSGPFLVKTGYAFVDCPDESWALKAIEALSGKIELHGKPIEVEHSVPKRQRIRKLQIRNIPPHLQWEVLDSLLVQYGVVESCEQVNTDSETAVVNVTYSSKDQARQALDKLNGFQLENFTLKVAYIPDEMAAQQNPLQQPRGRRGLGQRGSSRQGSPGSVSKQKPCDLPLRLLVPTQFVGAIIGKEGATIRNITKQTQSKIDVHRKENAGAAEKSITILSTPEGTSAACKSILEIMHKEAQDIKFTEEIPLKILAHNNFVGRLIGKEGRNLKKIEQDTDTKITISPLQELTLYNPERTITVKGNVETCAKAEEEIMKKIRESYENDIASMNLQAHLIPGLNLNALGLFPPTSGMPPPTSGPPSAMTPPYPQFEQSETETVHLFIPALSVGAIIGKQGQHIKQLSRFAGASIKIAPAEAPDAKVRMVIITGPPEAQFKAQGRIYGKIKEENFVSPKEEVKLEAHIRVPSFAAGRVIGKGGKTVNELQNLSSAEVVVPRDQTPDENDQVVVKITGHFYACQVAQRKIQEILTQVKQHQQQKALQSGPPQSRRK
notes: also called pCAGGS-FLAG-tagged-KOC1; full length KOC1 construct; not shown: N-terminal FLAG tag; C-terminal HA tag
Regarding B1, in assay [1], the binding result is “binds”.

B2: ECFP-fused KOC1 (ECFP-KOC1) (other)
chain: MNKLYIGNLSENAAPSDLESIFKDAKIPVSGPFLVKTGYAFVDCPDESWALKAIEALSGKIELHGKPIEVEHSVPKRQRIRKLQIRNIPPHLQWEVLDSLLVQYGVVESCEQVNTDSETAVVNVTYSSKDQARQALDKLNGFQLENFTLKVAYIPDEMAAQQNPLQQPRGRRGLGQRGSSRQGSPGSVSKQKPCDLPLRLLVPTQFVGAIIGKEGATIRNITKQTQSKIDVHRKENAGAAEKSITILSTPEGTSAACKSILEIMHKEAQDIKFTEEIPLKILAHNNFVGRLIGKEGRNLKKIEQDTDTKITISPLQELTLYNPERTITVKGNVETCAKAEEEIMKKIRESYENDIASMNLQAHLIPGLNLNALGLFPPTSGMPPPTSGPPSAMTPPYPQFEQSETETVHLFIPALSVGAIIGKQGQHIKQLSRFAGASIKIAPAEAPDAKVRMVIITGPPEAQFKAQGRIYGKIKEENFVSPKEEVKLEAHIRVPSFAAGRVIGKGGKTVNELQNLSSAEVVVPRDQTPDENDQVVVKITGHFYACQVAQRKIQEILTQVKQHQQQKALQSGPPQSRRK
notes: Expressed in COS-7 cells; not shown: ECFP from pECFP-N1 vector
B2: the binding result in assay [2] was “binds”.

B3: endogenous KOC1 (KH domain containing protein over-expressed in cancer) (other)
chain: MNKLYIGNLSENAAPSDLESIFKDAKIPVSGPFLVKTGYAFVDCPDESWALKAIEALSGKIELHGKPIEVEHSVPKRQRIRKLQIRNIPPHLQWEVLDSLLVQYGVVESCEQVNTDSETAVVNVTYSSKDQARQALDKLNGFQLENFTLKVAYIPDEMAAQQNPLQQPRGRRGLGQRGSSRQGSPGSVSKQKPCDLPLRLLVPTQFVGAIIGKEGATIRNITKQTQSKIDVHRKENAGAAEKSITILSTPEGTSAACKSILEIMHKEAQDIKFTEEIPLKILAHNNFVGRLIGKEGRNLKKIEQDTDTKITISPLQELTLYNPERTITVKGNVETCAKAEEEIMKKIRESYENDIASMNLQAHLIPGLNLNALGLFPPTSGMPPPTSGPPSAMTPPYPQFEQSETETVHLFIPALSVGAIIGKQGQHIKQLSRFAGASIKIAPAEAPDAKVRMVIITGPPEAQFKAQGRIYGKIKEENFVSPKEEVKLEAHIRVPSFAAGRVIGKGGKTVNELQNLSSAEVVVPRDQTPDENDQVVVKITGHFYACQVAQRKIQEILTQVKQHQQQKALQSGPPQSRRK
notes: Endogenous protein in cell extracts; GenBank NM-006547 printed for the gene; also called IMP-3
Take B3: the binding result in assay [3] is on record as “binds”.

B4: KOC1DEL3 (KOC1 deletion mutant 3; 2xRRM without KH, N-terminal FLAG, C-terminal HA) (other)
chain: MNKLYIGNLSENAAPSDLESIFKDAKIPVSGPFLVKTGYAFVDCPDESWALKAIEALSGKIELHGKPIEVEHSVPKRQRIRKLQIRNIPPHLQWEVLDSLLVQYGVVESCEQVNTDSETAVVNVTYSSKDQARQALDKLNGFQLENFTLKVAYIPDEMAAQQNPLQQPRGRRGLGQRGSSRQGSPGSVSKQKPCDLP
notes: Contains the two RRMs and lacks the four KH domains; also called the RRM domains; not shown: N-terminal FLAG tag; C-terminal HA tag
As for B4, the binding result in assay [4] is reported as “binds”. In the case of B5, in assay [5], the binding result is recorded as “binds”.

B6: KOC1DEL2 (KOC1 deletion mutant 2; 2xRRM+2xKH, N-terminal FLAG, C-terminal HA) (other)
chain: MNKLYIGNLSENAAPSDLESIFKDAKIPVSGPFLVKTGYAFVDCPDESWALKAIEALSGKIELHGKPIEVEHSVPKRQRIRKLQIRNIPPHLQWEVLDSLLVQYGVVESCEQVNTDSETAVVNVTYSSKDQARQALDKLNGFQLENFTLKVAYIPDEMAAQQNPLQQPRGRRGLGQRGSSRQGSPGSVSKQKPCDLPLRLLVPTQFVGAIIGKEGATIRNITKQTQSKIDVHRKENAGAAEKSITILSTPEGTSAACKSILEIMHKEAQDIKFTEEIPLKILAHNNFVGRLIGKEGRNLKKIEQDTDTKITISPLQELTLYNPERTITVKGNVETCAKAEEEIMKKIRESYENDIASMNLQAHLIPGLNLNALGLFPPTSGMPPPTSGPPSAMTPPYPQFEQSETE
notes: Lacks the C-terminal two KH domains; not shown: N-terminal FLAG tag; C-terminal HA tag
For the molecule B6, the binding result in assay [6] is “binds”.

These data come from US20080050378A1 (ONCOTHERAPY SCIENCE, published 2008).
